# Experimental data from patent publication US10047131B2, “Peptides and combination of peptides for use in immunotherapy against ovarian cancer and other cancers” (immatics biotechnologies GmbH, priority 2015, dated 2018).
# Molecular target: HLA-A*02:01 (Homo sapiens, UniProt P04439, D140Y/D185E/D98H/E176V/E277Q/G131W/G231S/I119V/I121R/I166T/I218V/L300P/L318F/N151K/N90K/P208A/P217A/Q86G/Q94H/R138H/R169H/T345S)
# Assay: MHC binding assay (UV-ligand exchange, ELISA of exchange yield)
# Conditions: binding to HLA-A*02:01, UV-ligand exchange
# Procedure, shortened: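 ELISA of β2m retained on streptavidin-captured, 100-fold diluted complexes (HRP anti-β2m, TMB, 450 nm) gives the yield. Complexes come from UV-triggered exchange of a photocleavable placeholder peptide for the candidate, which must bind to stop complex dissociation.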
row,"Peptide exchange (MHC class I binding score, peptide exchange yield)",Substance
1,“+++” (≥50 = +++),587 (VMNDRLYAI; listed as Homo sapiens) [compound 587]
2,“++” (≥20% = ++),590 (SLIEKLWQT; listed as Homo sapiens) [compound 590]
3,“+++” (≥50 = +++),591 (SMAELDIKL; listed as Homo sapiens) [compound 591]
4,“+++” (≥50 = +++),601 (SAFPFPVTV; listed as Homo sapiens) [compound 601]
5,“++++” (≥75% = ++++),602 (YLLEQIKLIEV; listed as Homo sapiens) [compound 602]
6,“++” (≥20% = ++),603 (FLIEPEHVNTV; listed as Homo sapiens) [compound 603]
7,“+++” (≥50 = +++),604 (SILDRDDIFV; listed as Homo sapiens) [compound 604]
8,“+++” (≥50 = +++),606 (ALWETEVYI; listed as Homo sapiens) [compound 606]
9,“+++” (≥50 = +++),609 (ALWKQLLEL; listed as Homo sapiens) [compound 609]
10,“+++” (≥50 = +++),610 (LLAPTPYIIGV; listed as Homo sapiens) [compound 610]
11,“++++” (≥75% = ++++),611 (YLLDDGTLVV; listed as Homo sapiens) [compound 611]
12,“+++” (≥50 = +++),613 (RLLPPGAVVAV; listed as Homo sapiens) [compound 613]
13,“++” (≥20% = ++),615 (VLPPDTDPA; listed as Homo sapiens) [compound 615]
14,“+++” (≥50 = +++),617 (ALMYESEKVGV; listed as Homo sapiens) [compound 617]
15,“++++” (≥75% = ++++),621 (VLMDRLPSLL; listed as Homo sapiens) [compound 621]

# The next lines start with the substance.
row,Substance,"Peptide exchange (MHC class I binding score, peptide exchange yield)"
1,580 (LLMENAERV; listed as Homo sapiens) [compound 580],“++” (≥20% = ++)
2,582 (TLCDVILMV; listed as Homo sapiens) [compound 582],“+++” (≥50 = +++)
3,583 (ILANDGVLLAA; listed as Homo sapiens) [compound 583],“+++” (≥50 = +++)
4,584 (ALAEVAAMENV; listed as Homo sapiens) [compound 584],“+++” (≥50 = +++)
5,585 (ALWDLAADKQTL; listed as Homo sapiens) [compound 585],“++++” (≥75% = ++++)
6,586 (KLKPGDLVGV; listed as Homo sapiens) [compound 586],“+++” (≥50 = +++)
7,588 (SLLPLSHLV; listed as Homo sapiens) [compound 588],“+++” (≥50 = +++)
8,589 (KLYPQLPAEI; listed as Homo sapiens) [compound 589],“+++” (≥50 = +++)
9,592 (RLLSAAENFL; listed as Homo sapiens) [compound 592],“+++” (≥50 = +++)
10,593 (GLPRFGIEMV; listed as Homo sapiens) [compound 593],“+++” (≥50 = +++)
11,594 (IMLKGDNITL; listed as Homo sapiens) [compound 594],“+++” (≥50 = +++)
12,595 (VLLSIYPRV; listed as Homo sapiens) [compound 595],“+++” (≥50 = +++)
13,596 (ALLDQTKTLAESAL; listed as Homo sapiens) [compound 596],“+++” (≥50 = +++)
14,597 (KLLEGQVIQL; listed as Homo sapiens) [compound 597],“+++” (≥50 = +++)
15,598 (FLFPHSVLV; listed as Homo sapiens) [compound 598],“+++” (≥50 = +++)
16,599 (YLLNDASLISV; listed as Homo sapiens) [compound 599],“+++” (≥50 = +++)
17,600 (ALAAPDIVPAL; listed as Homo sapiens) [compound 600],“+++” (≥50 = +++)
18,605 (KLYEAVPQL; listed as Homo sapiens) [compound 605],“+++” (≥50 = +++)
19,607 (RLYSGISGLEL; listed as Homo sapiens) [compound 607],“+++” (≥50 = +++)
20,608 (SLLSVSHAL; listed as Homo sapiens) [compound 608],“+++” (≥50 = +++)
21,612 (YLYNEGLSV; listed as Homo sapiens) [compound 612],“+++” (≥50 = +++)
22,614 (LLLPDQPPYHL; listed as Homo sapiens) [compound 614],“+++” (≥50 = +++)
23,616 (VLIDEVESL; listed as Homo sapiens) [compound 616],“+++” (≥50 = +++)
24,618 (VLFDSESIGIYV; listed as Homo sapiens) [compound 618],“+++” (≥50 = +++)
25,619 (ALQDRVPLA; listed as Homo sapiens) [compound 619],“+++” (≥50 = +++)
26,620 (KLLNKIYEA; listed as Homo sapiens) [compound 620],“++++” (≥75% = ++++)
27,622 (RLLGEEVVRVLQA; listed as Homo sapiens) [compound 622],“+++” (≥50 = +++)
28,623 (YLVEDIQHI; listed as Homo sapiens) [compound 623],“+++” (≥50 = +++)
29,635 (SLDSTLHAV; listed as Homo sapiens) [compound 635],“+++” (≥50 = +++)
